Our source for the Neut50 value values is patent US9821050.

This experiment has as its target DENV2 (S-16803) intact virus, E glycoprotein on the virion (dengue virus serotype 2 (S-16803)). As to the kind of experiment: cell-based or functional assay.

Bounds are passed on as bounds.

The substance human monoclonal antibody 2D22 came in with a Neut50 value of less than 0.2 µg/mL.
